Columns and labels:
t-PA = t-PA (Homo sapiens, UniProt P00750); assay: Cleavage of maltose binding protein-QRGRSA-HY4 fusion protein by t-PA (SDS-PAGE); assay type: biochemical; details: 150 nM enzyme, 16 hours at 25 C
Procedure: (§1) The fusion consists of maltose binding protein fused to the amino terminus of the HY4 gene product of Arabidopsis thaliana with a linking region in between coding for the amino acid sequence QRGRSA, which is cleaved by t-PA between R and S. The concentration of fusion protein in each lane is […] and the concentration of u-PA or […] is 150 nM. The reaction buffer contains 50 mM Tris pH 7.5, 0.1 M NaCl, 1 mM EDTA, and 0.01% Tween 20. Reactions were set up in a total volume of […] and allowed to incubate 16 hours at 25 C. and then stopped by the addition of […] of 5× loading buffer and separated by electrophoresis on 12% polyacrylamide. The gel was stained with Coomassie Brilliant Blue 30 minutes and de-stained overnight.

u-PA = target: T1, u-PA (Homo sapiens, UniProt P00749); assay: Cleavage of maltose binding protein-QRGRSA-HY4 fusion protein by u-PA (SDS-PAGE); assay type: biochemical; details: 150 nM enzyme, 16 hours at 25 C
T1 construct: purchased Jack Henkin (Abbott Laboratories)
Procedure: as §1

t-PA, sequence (P00750 36-562): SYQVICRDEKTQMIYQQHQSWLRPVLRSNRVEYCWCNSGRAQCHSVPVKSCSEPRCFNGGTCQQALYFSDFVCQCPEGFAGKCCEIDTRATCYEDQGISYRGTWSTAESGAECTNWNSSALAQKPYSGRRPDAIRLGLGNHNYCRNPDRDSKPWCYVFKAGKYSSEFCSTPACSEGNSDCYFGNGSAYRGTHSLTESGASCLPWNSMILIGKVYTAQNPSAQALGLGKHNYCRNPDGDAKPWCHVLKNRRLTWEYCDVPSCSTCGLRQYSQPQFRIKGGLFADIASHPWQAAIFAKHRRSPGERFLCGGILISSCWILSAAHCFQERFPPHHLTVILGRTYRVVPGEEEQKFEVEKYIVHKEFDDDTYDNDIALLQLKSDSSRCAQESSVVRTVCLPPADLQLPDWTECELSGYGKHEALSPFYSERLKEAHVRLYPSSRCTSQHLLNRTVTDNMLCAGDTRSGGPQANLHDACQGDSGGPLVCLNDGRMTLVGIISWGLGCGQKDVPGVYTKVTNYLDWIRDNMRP

B1: fusion protein: maltose binding protein fused to HY4 gene product of Arabidopsis thaliana with linking region QRGRSA (protein)
chain: QRGRSAMSGSVSGCGSGGCSIVWFRRDLRVEDNPALAAAVRAGPVIALFVWAPEEEGHYHPGRVSRWWLKNSLAQLDSSLRSLGTCLITKRSTDSVASLLDVVKSTGASQIFFNHLYDPLSLVRDHRAKDVLTAQGIAVRSFNADLLYEPWEVTDELGRPFSMFAAFWERCLSMPYDPESPLLPPKKIISGDVSKCVADPLVFEDDSEKGSNALLARAWSPGWSNGDKALTTFINGPLLEYSKNRRKADSATTSFLSPHLHFGEVSVRKVFHLVRIKQVAWANEGNEAGEESVNLFLKSIGLREYSRYISFNHPYSHERPLLGHLKFFPWAVDENYFKAWRQGRTGYPLVDAGMRELWATGWLHDRIRVVVSSFFVKVLQLPWRWGMKYFWDTLLDADLESDALGWQYITGTLPDSREFDRIDNPQFEGYKFDPNGEYVRRWLPELSRLPTDWIHHPWNAPESVLQAAGIELGSNYPLPIVGLDEAKARLHEALSQMWQLEAASRAAIENGSEEGLGDSAEVEEAPIEFPRDITMEETEPTRLNPNRRYEDQMVPSITSSLIRPEEDEESSLNLRNSVGDSRAEVPRNMVNTNQAQQRRAEPASNQVTAMIPEFNIRIVAESTEDSTAESSSSGRRERSGGIVPEWSPGYSEQFPSEENGIGGGSTTSSYLQNHHEILNWRRLSQTG
modifications: left off: large carriers
cleavage of fusion protein by t-PA (t-PA): readily cleaved | cleavage of fusion protein by u-PA (u-PA): did not

Source: patent US20030186329A1, “Use of substrate subtraction libraries to distinguish enzyme specificities” (The Scripps Research Institute, priority 1998, published 2003)
